Bound IEs/mm^2 on CSPG and Bound IEs/mm^2 on BSA data for 15 substances are collected here from patent US20130129767A1.

For test [1], the target named is decorin: CSPG (Chondroitin Sulfate Proteoglycan, Sigma) (bovine) (UniProt P21793). As to the kind of experiment: static adhesion assay, IEs on coated CSPG.
Test [2] deals with bovine serum albumin (bovine) (UniProt P02769). As to the kind of experiment: static adhesion assay, IEs on coated BSA.
Chain of UniProt P02769 (P02769 25-607 limits assumed): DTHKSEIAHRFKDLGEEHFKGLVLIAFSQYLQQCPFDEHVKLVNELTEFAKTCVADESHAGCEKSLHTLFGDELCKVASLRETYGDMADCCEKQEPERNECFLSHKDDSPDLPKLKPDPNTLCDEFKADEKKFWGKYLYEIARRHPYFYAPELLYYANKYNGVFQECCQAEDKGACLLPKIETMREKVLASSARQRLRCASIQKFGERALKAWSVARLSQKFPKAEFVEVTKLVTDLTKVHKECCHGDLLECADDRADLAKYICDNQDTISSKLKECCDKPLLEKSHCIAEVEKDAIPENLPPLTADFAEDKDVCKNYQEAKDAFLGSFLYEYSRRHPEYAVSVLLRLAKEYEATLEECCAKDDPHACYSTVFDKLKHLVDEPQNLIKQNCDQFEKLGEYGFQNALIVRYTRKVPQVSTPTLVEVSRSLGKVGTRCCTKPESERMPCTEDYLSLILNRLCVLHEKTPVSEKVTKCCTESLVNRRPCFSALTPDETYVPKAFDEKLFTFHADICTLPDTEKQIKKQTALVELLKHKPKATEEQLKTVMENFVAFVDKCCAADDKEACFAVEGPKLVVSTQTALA

Chain of UniProt P21793 (P21793 31-360 limits assumed): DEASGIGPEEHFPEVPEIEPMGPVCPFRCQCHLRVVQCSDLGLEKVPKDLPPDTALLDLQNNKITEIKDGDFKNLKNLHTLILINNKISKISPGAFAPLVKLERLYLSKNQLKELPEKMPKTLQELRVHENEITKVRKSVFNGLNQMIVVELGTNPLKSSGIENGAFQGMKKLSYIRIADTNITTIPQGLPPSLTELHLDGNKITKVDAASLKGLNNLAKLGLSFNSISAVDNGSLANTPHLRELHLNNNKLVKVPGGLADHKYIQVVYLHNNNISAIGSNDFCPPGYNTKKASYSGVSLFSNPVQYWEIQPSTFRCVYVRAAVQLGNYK

Turning to “surface of P. falciparum-infected erythrocytes of isolate 1MH016 (naturally infected pregnant person, Benin)”, in test [1], the Bound IEs/mm^2 on CSPG came to 178 IEs/mm^2. Moreover, the Bound IEs/mm^2 on BSA in test [2] turned out to be 2 IEs/mm^2.
The substance “surface of P. falciparum-infected erythrocytes of isolate 1MMCH (naturally infected pregnant person, Benin)” came in with a Bound IEs/mm^2 on CSPG in test [1] of 394 IEs/mm^2. The substance also registered a Bound IEs/mm^2 on BSA in test [2] of 2.5 IEs/mm^2.
For “surface of P. falciparum-infected erythrocytes of isolate AK357 (naturally infected pregnant person, Benin)”, in that order: 337 IEs/mm^2 and 2.5 IEs/mm^2.
For “surface of P. falciparum-infected erythrocytes of isolate AK366 (naturally infected pregnant person, Benin)”, the Bound IEs/mm^2 on CSPG in test [1] came out at 357 IEs/mm^2. In addition, the Bound IEs/mm^2 on BSA in test [2] came to 0.5 IEs/mm^2.
“surface of P. falciparum-infected erythrocytes of isolate CM307 (naturally infected pregnant person, Benin)” registered a Bound IEs/mm^2 on CSPG in test [1] of 623 IEs/mm^2. In test [2], the Bound IEs/mm^2 on BSA was determined as 1 IEs/mm^2.
The substance “surface of P. falciparum-infected erythrocytes of isolate CM0375 (naturally infected pregnant person, Benin)” registered a Bound IEs/mm^2 on CSPG in test [1] of 63 IEs/mm^2. In test [2], this substance came in with a Bound IEs/mm^2 on BSA of 5 IEs/mm^2.
For the substance “surface of P. falciparum-infected erythrocytes of isolate CM0425 (naturally infected pregnant person, Benin)”, in test [1], the Bound IEs/mm^2 on CSPG stood at 1040 IEs/mm^2. In addition, the Bound IEs/mm^2 on BSA in test [2] worked out at 1 IEs/mm^2.
“surface of P. falciparum-infected erythrocytes of isolate CM0437 (naturally infected pregnant person, Benin)” registered a Bound IEs/mm^2 on CSPG in test [1] of 736 IEs/mm^2. Further, the Bound IEs/mm^2 on BSA in test [2] was 1 IEs/mm^2.
“surface of P. falciparum-infected erythrocytes of isolate CM445 (naturally infected pregnant person, Benin)”: in test [1], the Bound IEs/mm^2 on CSPG was determined as 218 IEs/mm^2. Also, the Bound IEs/mm^2 on BSA in test [2] came out at 1.5 IEs/mm^2.
With “surface of P. falciparum-infected erythrocytes of isolate WP0140 (naturally infected pregnant person, Benin)”, the Bound IEs/mm^2 on CSPG in test [1] was 244 IEs/mm^2. The Bound IEs/mm^2 on BSA in test [2] was found to be 2.5 IEs/mm^2.
Regarding “surface of P. falciparum-infected erythrocytes of isolate WP0161 (naturally infected pregnant person, Benin)”, the Bound IEs/mm^2 on CSPG in test [1] is 1300 IEs/mm^2. Further, the Bound IEs/mm^2 on BSA in test [2] was found to be 1 IEs/mm^2.
The corresponding values for “surface of P. falciparum-infected erythrocytes of isolate WP0168 (naturally infected pregnant person, Benin)” are 473 IEs/mm^2 and 2 IEs/mm^2.
As for “surface of P. falciparum-infected erythrocytes of isolate WP0182 (naturally infected pregnant person, Benin)”, in test [1], the Bound IEs/mm^2 on CSPG amounted to 339 IEs/mm^2. Further, the Bound IEs/mm^2 on BSA in test [2] amounted to 2 IEs/mm^2.
For “surface of P. falciparum-infected erythrocytes of isolate WP0200 (naturally infected pregnant person, Benin)”, in that order: 185 IEs/mm^2 and 4.5 IEs/mm^2.
With “surface of P. falciparum-infected erythrocytes of isolate WP203 (naturally infected pregnant person, Benin)”, the Bound IEs/mm^2 on CSPG in test [1] was 161 IEs/mm^2. The Bound IEs/mm^2 on BSA in test [2] came to 1 IEs/mm^2.
